{"source": "the DeepSol protein solubility set", "data": [{"assay": "soluble on expression in E. coli; label from the status in PepcDB or PDB records", "values": [{"sequence": "SNAMLGGIEAGGTKFVCAVGREDGTIIDRIEFPTKMPDETIEKVIQYFSQFSLQAIGIGSFGPVDNDKTSQTYGTITATPKAGWRHYPFLQTVKNEMKIPVGFSTDVNAAALGEFLFGEAKGLDSCLYITIGTGIGAGAIVEGRLLQGLSHPEMGHIYIRRHPDDVYQGKCPYHGDCFEGLASGPAIEARWGKKAADLSDIAQVWELEGYYIAQALAQYILILAPKKIILGGGVMQQKQVFSYIYQYVPKIMNSYLDFSELSDDISDYIVPPRLGSNAGIIGTLVLAHQALQAEAASGEVRS", "soluble on expression in E. coli": "soluble"}, {"sequence": "MEGVKKIKNPSTVKDELLELMFRIYRSTNGKYPALEWVKRKPNPNDFNGFREVYEPFLKFRLSQEFDELYTYQKDNRIIGTIALVYKRIKEKGIWWVPEELMNEKVGLIEFFVVDPEFQGKGIGSTLLEFAVKRLRSLGKDPYVVTFPNLEAYSYYYMKKGFREIMRYKEFVILKFNHKKFQLEHHHHHH", "soluble on expression in E. coli": "soluble"}, {"sequence": "MTQFDKQYNSIIKDIINNGISDEEFDVRTKWDSDGTPAHTLSVISKQMRFDNSEVPILTTKKVAWKTAIKELLWIWQLKSNDVNDLNMMGVHIWDQWKQEDGTIGHAYGFQLGKKNRSLNGEKVDQVDYLLHQLKNNPSSRRHITMLWNPDELDAMALTPCVYETQWYVKHGKLHLEVRARSNDMALGNPFNVFQYNVLQRMIAQVTGYELGEYIFNIGDCHVYTRHIDNLKIQMEREQFEAPELWINPEVKDFYDFTIDDFKLINYKHGDKLLFEVAV", "soluble on expression in E. coli": "soluble"}, {"sequence": "MSLSAHPVPHAPAAPVCLAPRPAVPPTAVTVPPGAWDCHAHVLGPADLYPMQAERSYTPPDSSAAQYAALLDTLGLRRGVLVQPSVYGTDNRLLAQAVARPEWRGIAVLDPAADTRQVAALHAAGVRGFRLNLLFPGGPGLDALERSAALVAPFGWHAQLLVDVRILPGIEHRLARLPVPVVFDHLGHFPYELGTDWPGFHALLRRVAAGRTYVKLSGSYRLSARASHIADVAPIAQALVREAPQRLVWGSDWPHVGRFQDMPATHALLDALALWCPDPAARRAILVDTPTQLYSEGHHHHHH", "soluble on expression in E. coli": "not soluble"}, {"sequence": "MSLDKRYIIAEIKVSIVKTQSAGADYTDHAAGHWINDTIIANPMSVYNDFQHSRSAWGMDVLKGIFIEVTTESGHQGYATAYGGYISSWIIKNHLNRFLIGADARNLSKLYDQMYRASIPYSGQNGVVINTIAGIDLALWDLIGKVRQEPVYMMIGGKVREKLQTYVTGPEAKLAQDWGHVGSKIPLPYGPGDGIVGLKKNQEYIMETRKQVGSDYRLMVDCYMSLDVPYAIDLANAVKEANLYWIEEALPPHDLESHKHIKDACPWQKWTTGEHTNSRYGFRNLIRDRSVDILQPDLTLCGMTETLRIAAMASAYDITVIPHCSGVYAYNFGIASTLTPFNEFINLHPKATEVVPIFGKMFTNEPVPIKGEVTLTDLPGFGAELNKEVELEEIEGHHHHHH", "soluble on expression in E. coli": "soluble"}, {"sequence": "MGSDKIHHHHHHMHMLLSERISLMIRGGYVGRNPNTGKLQQHLQNGYERLQKGDLDAKRFDGAESTAHSMAIIGCSGSGKTTSLRRILNTYPQVIFHPTLNRHQIVYLKIDCSHDGSLKELCLNFFRAIDKVIGSNYEKKYGMKRHGVETMLALMAQTANMFALGLLVIDEIQHLSRAKSGGSEKMLNFFVTMSNTIGIPVLFVGTPKARDIFDLDLRSSRRAAGLGSIFWNPISQYLPDQKSQNPEWIAFTNTLWKLQYLQKRDPILSDEIRDTWFDLSQGILDIVVKLFILAQLRALATGAEKITVELLKRVYEDELKLVHPMLSALRSGIPERIAQFSDLAVPDMDKKIIHLIQKISASTVESEEDRALKQLSNDDQRRIYLMLKDEFPSDSIIFAIQKIVELKPQISRQQLLASIIQAMETDNTTSQVTVTKKKNQRIGLKQWNELEDTDLRHIFSMNSTSPESIYTQLNHHGLILQMSDLLS", "soluble on expression in E. coli": "not soluble"}, {"sequence": "MKGGCVSQWKAAAGFLFCVMVFASAERPVFTNHFLVELHKGGEDKARQVAAEHGFGVRKLEHHHHHH", "soluble on expression in E. coli": "not soluble"}, {"sequence": "MSLIIDCHGHVSAPVELWAYKASLLAHRGSHGRGGVKVTDEQIIAAAHHKETWPDGHIELLHNHGTDMQLISPRTFQMMNSAKPARVVHWFCEEVNTLIHRQCTLIPEMFIPVAGLPQVAGEPIENVFAEMDRCVSMGFKGFLLNPDPYENGAEEAPPLGDRYWYPLYEKLCELDLPAHIHATGSQSERSPYSLHFINEETIATYNLCTSSVFDDFPQLKVVVSHGGGAIPYQLGRFESQSRRSKHLFSERMAKLYFDTVLYTEGALRLLIETVGPERCLFGSECPGVGSTIDPATGKQMDHIAPFIQKFDFLSDADKKLIFEDNARKVFNLEVEGHHHHHH", "soluble on expression in E. coli": "soluble"}, {"sequence": "MHHKAKVIGMLKETIRSGDWKGEKHVPVIEYEREGDLVKVEVSVGKEIPHPNTPEHHIAWIELYFHPEGGQFPILVGRVEFTNHSDPLTEPRAVFFFKTSKKGKLYALSYCNIHGLWENEVQLE", "soluble on expression in E. coli": "soluble"}, {"sequence": "HHHHHHGILMMANRMILNETAWFGRGAVGALTDEVKRRGYQKALIVTDKTLVQCGVVAKVTDKMDAAGLAWAIYDGVVPNPTITVVKEGLGVFQNSGADYLIAIGGGSPQDTCKAIGIISNNPEFADVRSLEGLSPTNKPSVPILAIPTTAGTAAEVTINYVITDEEKRRKFVCVDPHDIPQVAFIDADMMDGMPPALKAATGVDALTHAIEGYITRGAWALTDALHIKAIEIIAGALRGSVAGDKDAGEEMALGQYVAGMGFSNVGLGLVHGMAHPLGAFYNTPHGVANAILLPHVMRYNADFTGEKYRDIARVMGVKVEGMSLEEARNAAVEAVFALNRDVGIPPHLRDVGVRKEDIPALAQAALDDVCTGGNPREATLEDIVELYHTAW", "soluble on expression in E. coli": "soluble"}, {"sequence": "MNASSEFTLQFESHAVRVQVDEAGTPWFNANDICTAVELLNPCAALAQHVGARNVSKRKIIDTIGRTQRANYLNEPGVLTLLIGSTKEAAKRLRRWLISEALPAAAVQKAGQHSVPQHHAPSISTPFQPTEDHTMNAITPFQFESHAVRTVVDDHGEVWFVGKDVADVLGYTNHNKALGDHCKGVPKRYPLQTPGGIQEIRIISEPDMLRLIVSSKLPAAERFERWVTSEVLPTIHKTGNRPALDHSTHSANAITPFQFESKDVRIQLDEASAPWFNANDVCSILEFGNPRQAIESHVDVEDVQKLDATDNLGRTRQTNHINESGLYALIMGSTKPAAKRFKRWVTSEVLPTLRKTGTYSTPGALPTLPGPTQDRIAALLLIGQYISTVPGVKPGIAAAATLACIKSNTNLTTEEIRRALPALRDPLCMLNATQLGKQLHCSAKAVNQLLASRGLQFRNERDDWELTEAGRVWGEAIPYSRNGHSSYQILWNPTVVDSLKVAA", "soluble on expression in E. coli": "soluble"}, {"sequence": "MGEWEIIDIGPFTQNLGKFAVDEENKIGQYGRLTFNKVIRPCMKKTIYENEGFREIKGYEYQLYVYASDKLFRADISEDYKTRGRKLLRFNGPVPPP", "soluble on expression in E. coli": "soluble"}, {"sequence": "MGSDKIHHHHHHMYNYPFENFDFIDFWDDDEYAMNEYIGAPPTEEMIEETERELGYKLPESYIWLMKQHNGGIPFNVCFPCDEPTSWADDHVAITGIMGVDKDKIYSLCGQLGSRFMIEEWGYPDIGVAICDCPSVGHDMIFLDYRECGPQGEPKVVHVDQEDDYYVTFLADNFEEFIRGLVNEEVFDTSEEDERMELEKVRNAAFSPLLSDLCAKCDHPVDTERWIRKISEEIVTDKGFFALHADERSYLLYDIQLWLYTNVYPDTTEEDYLSAYKKIIALDGEFSTGGYASDFVTDWLTRRKESGMVTCNDGILSMAAGTKEALLANRELISNKEQ", "soluble on expression in E. coli": "not soluble"}, {"sequence": "MGSDKIHHHHHHMKEAKKIDISKLKTGFLGKFPSHQLSRILSSEPDRLTEPEFLAKALKENKYVPYYYINVRENPTSIKIYRYVTKISNRDNDIDEVKNKFDSFLYGKSIVILDEVDFLQDYDVLYHITRHTKANLILLTQKVYWYMDTNDESVKSSLQPDHIVFYEYSSDEIREILKMRADEGLNKYDPDSLGLLSAMLVRNYRSDARIGIKALEIIGRMNEWDDDSVRTALKQAYVEVEGETLKNLGDRDLLILAALIKNQDTNRAYSEVSASSNLLLRGVSKSTFF", "soluble on expression in E. coli": "not soluble"}, {"sequence": "MKRFFALVHKDEDSAFGVQFPDFEGLFSAADEEENLIINATEALQLYCEDMDTVPVPLKFEEVIQQKAVKKALSEGAFLIQVPFIENDSEVVRTNISIERGLLRAIDNCAQERGLTRSAFLATAARHELNI", "soluble on expression in E. coli": "not soluble"}, {"sequence": "MRPQQLHATEITSSGFRLAWPPLLTADSGYYVLELVPSAQPGAARRQQLPGNATDWIWAGLDPDTDYDVALVPESNVRLLRPQILRVRTRPGEAGPGASGPESGAGPAPTQLAALPAPEEAGPERIVISHARPRSLRVSWAPALGSAAALGYHVQFGPLRGGEAQRVEVPAGRNCTTLQGLAPGTAYLVTVTAAFRSGRESALSAKACTPDGPRPRPRPVPRAPTPGTASREP", "soluble on expression in E. coli": "soluble"}, {"sequence": "NRLKDSKAKSRVVILLTDGSNNMGDITPRMAADIARTFGIRVYTVGVGTRGEAPFPIQTEFGVRIQNVPVDIDEPTLDGIAEVSGGKYFRAVDNETLNEIYKEIDKLEKTRLMTKSFKAYEEK", "soluble on expression in E. coli": "not soluble"}, {"sequence": "MAHHHHHHMSQLKIKRGNFLFTSESVNEGHPDKICDQISDAILDSCLREDPYSKVACEVCAKKNYIFIFGEITTKAKVNYDKVTRDVLKHIGYDDESKGLDYKTAEIKVSIDEQSPDIAQCVHENRSPELIGAGDQGIMFGYATDETENYMPLTHHYATLLGKRLTEVRKLGILPYLGPDGKTQITIEYKNKGSCGGHLEPLRVHTVLISTQHAEDIKYEQLKTDLMENVIKYVIPEKLLDNETLYYLNPSGKFVLGGPAADAGLTGRKIICDTYGGWGAHGGGAFSGKDASKVDRSAAYYLRFIAKSLVANKFCRRVLVQASYSIGIANPISLNVNSYGTVSTGYTDYDLEQIILRNFDLRPGFIIQELKLTEPVFSKTSAYGHFGREGDTFTWEKIKDLSHEKNALKN", "soluble on expression in E. coli": "soluble"}, {"sequence": "MPNSSILLIFLLTIVILIAPEENHKTYCEVLTSNNSNCTAYCKEKPECSWGRCEGYFKTNCVCYSDKYQFCE", "soluble on expression in E. coli": "not soluble"}, {"sequence": "MGHHHHHHSHMNFAGKHVGFGLTGSHCTYHEVLPQMERLVELGAKVTPFVTHTVQTTDTKFGESSEWINKIKQITEEPIVDSMVKAEPFGPKTPLDCMVIAPMTGNSTSKFANAMTDSPVLMGAKATLRNGKPVVVGISTNDALGLNGINIMRLMATKNIYFIPFGQDNPQVKPNSLVARMEALPETIEAALRGQQYQPVLIEKFRD", "soluble on expression in E. coli": "soluble"}, {"sequence": "MSKMTRHDAQLYELKKKIEELKKIRGRGTELISLYIPAGYDLSKVMQQLREEYSTAQNIKSKTTRKNVLGALERAMQHLKLYKQTPENGLALFVGNVSEIEGNTDIRLWAIIPPEPLNVRLYRCDQTFVTEPLEEMLRVKDAYGLITVEKNEATIGLLRGKRIELLDELTSNVPGKTRAGGQSARRYERIREQETHEFMKRIGEHANRAFLPLLEKGELKGIIIGGPGPTKEEFVEGEYLHHELKKKILGVVDISYHGEYGLRELVEKASDILRDHEVIREKKLVNEFLKHVVKDTGLATYGEREVRRALEIGAVDVLLISEGYNKVRVRVKCNHCGWEELKTMSEEEYEVYRKKITKCPKCGSQNLTIEKWDVAEELIKMAEEAGSDVEIISLDTEEGQQFYRAFGGLGAILRFKI", "soluble on expression in E. coli": "soluble"}, {"sequence": "MYSAPDFSNNDYKIIMSSQNMKDEKEELMDINKVSEQEMLARKVSKSYVSKIIEYREITGGFDKLEDMKRIKGIGNATYQKLSKVFKVASAPNKKMLNINSADDMTLKYYGLSKKEIKRIQKYLDKNDRITDNIEFKKIVNKKTYERLKDLINYDGGKRLEHHHHHH", "soluble on expression in E. coli": "soluble"}, {"sequence": "EVKLQESGAGLVQPSQSLSLTCSVTGYSITSGYYWNWIRLFPGNKLEWVGYISNVGDNNYNPSLKDRLSITRDTSKNQFFLKLNSVTTEDTATYYCARSEYYSVTGYAMDYWGQGTTVTVSSAWRHP", "soluble on expression in E. coli": "soluble"}, {"sequence": "MDMHSGTFNPQDFAWQGLTLTPAAAIHIRELVAKQPGMVGVRLGVKQTGCAGFGYVLDSVSEPDKDDLLFEHDGAKLFVPLQAMPFIDGTEVDFVREGLNQIFKFHNPKAQNECGCGESFGV", "soluble on expression in E. coli": "not soluble"}]}]}
